Assay: yeast display, Sf9 membrane polyspecificity reagent, FACS + sequencing; frameworks hold sequencing errors
Outline: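 Using colony PCR, genes from sorted yeast display clones were amplified, then sequenced on MiSeq at 2 × 250 and filtered by CDR length. The clones had been stained with 10% biotinylated, detergent-solubilized Sf9 membrane reagent for 1 hour at 4 °C and sorted by FACS into low and high (top ~1%) gates on anti-HA and streptavidin fluorescence. Polyreactivity labels come from the gate of origin.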

Row | Sequence | polyreactivity (PSR sort gate)
1 | QVQLVESGGGLVQAGGSLRLSCAASGSIFDWNAMGWYRQAPGKERELVAAIRRGGSTYYADSVKGRFTISRDNAKNTVYLQMNSLKPEDTAVYYCATRFYSRYYILDYDYWGQGTQLTVSS | high polyreactivity
2 | QVQLVESGGGLVQAGGSLRLSCAASGSIFTHYAMGWYRQAPGKERELVAAISRRGGSTYYADSVKGRFTISRDNAKNTVYLQMNSLKPEDTAVYYCAVRLYLEMDYWGQGTQVTVSS | high polyreactivity
3 | QVQLVESGGGLVQAAGSLRLSCAASGSTFADNAMGWYRQAPGKEREMVAANSRRGGSTYYADSVKGRFTISLDNAKNTVYLQMNSLKPEDTAVYYCAKPSGLVVNQYRAGMEYWGQGTQVTVSS | high polyreactivity
4 | QVQLVESGGCLVQAGGSLRLSSAASGFIFSRYAMGWYRQATGKERELVASISWGGGSTSYADSVKGRFTISRDNAKYTVYLQMNSLKPEDTAVYYCNARVRSHRFNYWGQGTQVTVSS | high polyreactivity
5 | QVQLVESGGGLVQAGGSLRLSCAASGRIFAHYAMGWYRQAPGKERELVADITDGGSTYYADSVKGRFTISRDNAKNTVYLQMNSLKPEDTAVYYCATRRGPWPSEYDSWGQGTQVTVSS | low polyreactivity
6 | QVQLVESGGGLVQAGGSLRLSFAASGIIFSHNVMGWYRQAPGKERELVAAITYSGGSTYYADSVKGRFTISRDNAKNTVYLLMNSLKPEDTAVYYCNALGVSRRDYDYWGQGTQVTVSS | low polyreactivity
7 | QVQLVESGGGLVQAGGSLRLSCAASGFTVSWYVMGWYRQAPGKERELVAAITWSGGNTYADSVKGRFTISRDNAKNTVYLQMNSLKPEDTAVYYCAADPAHGTKWYVYPSHDDYWGQGTQVTVSS | low polyreactivity
8 | QVQLVESGGGLVQAGGSLRLSCAASGSTFGYYAMGWYRQAPGKERELVAVIRRGGSTNYADSVKGRFTISRENAKNTVYLQMHSLKPEDTAVYYCAKSQRGTVYSYYYWGQGSQVTVSS | high polyreactivity
9 | QVQLVESGVGLVQAGGSLRLSCAASGNIFGYYAMGWYRQAPGKERELVAAISRSGTRTYYADSVKGRFTISRDNAKNTVYLQMNSLKPEDTAVYYCNAAKSPARFQVNNFDYWGQGTQVTVSS | high polyreactivity
10 | QVQLVESGGGLVQAGGSLRLSCAASGFIFGDNAMGWYRQAPGKERELVAAINSGSRTSYADSVKGRFTISRDNAKNTVFLQMNSLKPEDTAVYYCAAESVSSGDNASRYDFWGQGTQVTVSS | low polyreactivity
11 | QVQLVESGGGLVQAGGSLRISCAASGFIFGPNAMGWYRQAPGKERELVAAITYSGGSTYYADSVKGRFTISRDNAKNTVYLQMNSLKPEDTAVYYCAADLYTLRYGYRYEYWGQGTQVTVSS | high polyreactivity
12 | QVQLVESGGGIVQAGGSLLLSCAASGRIFEKYALGWYRQAPGKDRELVAAISYSGGSTYYADSVKGSFTSSRDKAKNTVYFQMNSLKPEDTAVYYCARYSRTQAYDYWGQGTQVTVSS | high polyreactivity
13 | QVQLVESGGGLVQAGGSLPLSCAASGSTFGSYAMGWYRQAPGKERELVAAISYSGGSTYYADSVKGRFTISRDNEKNTVFLQMNSLKPEDTAVYYCATVRKYRAMDYWGQGTQVSVSS | high polyreactivity
14 | QVQLVVSGGGLVQAGGSLRLSCAASGRIFVANAMGWYRQAPGKERELVAAISGRGSRTYYADSVKGRFTISRDNAKNTVYLQMNSLKPEDTAVYYCAARYRYDGRYDYWGQGTQVTVSS | high polyreactivity
15 | QVQLQESGGGLVQAGGSLRPRCAPAGTIFLSVNMGWYRHAPGEEREFVASITQGATTNYADSLIGRFTISRDNAKNTVYLQMNCQKPEDTAVYYCAAYPRFYGGKYGEYGYWGQGTQVTVSS | high polyreactivity
16 | QVQLVESGGGLVQAGGSLRLSCAASGRTFYRYAMGWYRQAPGKERELVASITRDGRTNYADSVKGRFTISRDNAKNTVYLQMNSLKPEDTAVYYCNAKHKITHSSSDYWGQGTQVTVSS | high polyreactivity
17 | QVQLVESGGGLVQAGGSLRLSCAASGRIFKNNAMGWYRQAPGKERELVAAITWRSGRTYYADSVKGRFTISRDNAKNTVYLQMNSLKAEDTAVYYCAKQVFGYGIVNNGDYWGQGTQVTVSS | high polyreactivity
18 | QVQRVESGGGLVQAGGSLRLSCAASGFTIGSYAMGWYRQAPGKERELVAAITRRGGSTYYADSEKGRYTISRDNAKNTVSLQMNSLKPEDTAVYYCGKRSRDYVSSFRTSHANDYWGQGTQVTVSS | high polyreactivity
19 | QVHLVESGGGLVQAGGSLRLSCAASGSIFGPNAMGWYRPAPGKERELVAAINGGTGTFYADSVKGRFTISRDNAKHTVYLQMNSLKPEDTAVYYCAADYGTHYFVRYYYWGQGTEVTVSS | high polyreactivity
20 | QVQLVESGGGLVQAGGSLRLSCAASGRIFPVYAMGWYRQATGKERELVATISYSGSSTYYADSVKGRFTISRDNAKNTVYLQMNSLKPEDTAVYYCNADAFGPPGVQYYYWGQGTQVTVSS | low polyreactivity
21 | QVQLVESGGGLVQAGGSLSLTWAASGRTFLEYTMGWYRQAPGKERELVAAISSTGGSTNYADSVKGRFTISRDNAKNSVYLQMNSVKPEDTAVYYCAARLRRRSATSTRMGYWGLGTQVTVSS | high polyreactivity
22 | QVQLVESGGGLVQAGGSLRLSCAASGSTLAPYAMGGYRQAPGKERELVASINWGGTTTYYADSVKGRFTISRDNAKNTVYLQMNSLIPEDTAVYYCAALGLRWGRSGYYYEYYYWGQGTQVTVSS | high polyreactivity

Row | Sequence | polyreactivity (PSR sort gate)
23 | QVQLVESGGGLVQAGGSLRLSCAASGFTFYYYAMGWYRQAPGKERELVAAISRSGGSTYYADSVKGRFTISRDNAKNTVYLQMNSLKQEDTAVYYCAARRLVGAERPGYDDWGQGTQVTVSS | high polyreactivity
24 | QVQLVESGGGLVQAGGILRLSCSASGRTLPAYVMGWYRQAPGKERELVAAITSGGGGTYFADSVKGRFTISRDNAKNTVYLQMNSMKPEDTAVYYCATTGNFFHYVYDFDYYYWGQGTQVTLSS | low polyreactivity
25 | QVQLVESGGGLVQAGGSLRLSCAASGRTFAYYAMGWYLQAPGKERELVAAISSGGGSTYYADSVKGRFTISRDNAKNTVYLQMNSLKPEDTAVYYCNKGFNYGGWFKKYGYWGQGTQVTVSS | high polyreactivity
26 | QVQIVESGGGLVQAGGSLRLSCAASGTTFRFYAMGWYRQAPGKERELVAAIRRGGSTYYADSVKGRFTISRDNAKNTVYLQMNSLKPEDTAVYFCAAEPGYYSRPDYRVYRLYYWGLGTQVTVSS | high polyreactivity
27 | QVQLVESGGGIVQAGGSLRLSCAASGITFGRNTMGWYRQAPGKERELVAAIDSGGNTYADSVKGRFTISRDNAKNTVYLQMNSLKPEDTAVYYCAVDGGEFSSYGYWGQGTQVTVSS | low polyreactivity
28 | QVQLVESGGGLVQAGGSLRLSCAASGSIFQRNAMGWYRQAPGKERELVAAISWSGGSTYYADSVKGRFTISRDNAKNSVSLQMNSVKPEDTAVYYCARYYRPYDWGQGTQVTVSS | high polyreactivity
29 | QVQLVESGGGLLQAGGSLSLSCAASGLILANYAMGWYRQAPGKERELVAAISSSGGSTYYADSVKGRFTISRDNAKNTVYLQMNSLKPEDTAVYYCAAYPLYRRRWTGDYWGQGTQVTVSS | high polyreactivity
30 | QVQLVESGGGLVQAGGSIRLSCAASGRIFNHNSMGWYRQAPGKERELVAAITKSGGSTYYADSVKGRFTISRDNAKNTVYFQINSLITEDTAVYYCATRLWKIPGAMYYWGQGTQVTVSS | high polyreactivity
31 | QVQLVESGGGLVQAGGSLRLSCAASGIISYLYAMGWYRQAPGKERELVAVIRTSDAITYYADSVKGRFTISRDNAKNTVYLQMNSLKPEDTAVYYCNRDRGSIYGWGQGTQVTVSS | high polyreactivity
32 | QVQLVESGGGLVQAGGSLRLSCAASGSTFFHNAMGWYRQAPGKEREWVAAINWNGGSTYYADSVKGRFTISRDNAKNTVYLQMNSLKPEDTAVYYCAADIYTYLGAYYIGYYWGQGTQVTVSS | low polyreactivity
33 | QVQLVESGGGLVQAGGSLRLSCAASGITYTVYAMGWYRQAPGKERELVAVINESGGSTYYADSVKGRFTISRDNAKNTVYLQMNSLKPEDTAVYYCNKTRVYVSSTYDYWGLGTQVTVSS | low polyreactivity
34 | QVQLVESGGGLVQAGGSLRLSCAASGRTFLAYTMGWYRQAPGKEMELVAAISTPGGSTYYADSVKGRFTISRDNAKNTVYIQMNSLKPEDTAVYYCAAADSTWFDWGNYWYYYWGQGTQVTVSS | low polyreactivity
35 | QVQLVESGGGLVQAGGSLRLSCAASGRIFVGYAIGWYRQAPGKERELVAAINRSGSSTYYADSVKGRYTISRDNAKNTFYLQMNSLKPEDTAVYYCNARSGNRYGPRYDYWGQGTQVTVSS | high polyreactivity
36 | QVKLVESGGGLVQAGGSIRLSCAASGSTFATYAMGCYRQAPGKERELVAAITSGGSTDYADSVKGRFTISRDNAKNTVYLQMNSQKPEDTAVYYCNATWVLLSYYYLFWCYDYWGQGTQVTVSS | low polyreactivity
37 | QVQLVESGGGLVQAGGSLRLSCAASGSTFQYYAMGWYRQAPGKERELVAAISYGGSRTYYADSVKGRFTISRDNAKNNVYLQMNSLKPEDTAVYYCAKVKYRALAPYYYWGQGTQVTVSS | high polyreactivity
38 | QVQLVESGGGLVQAGVSLRLSCAASGNIFEQYAMGSDRQAPGKERELVARISWRGGSTYYADSVKGRFTISRDNAKNTVYLQLNSLKPEDTAVYYCNALEVVYFGYYPSDYWGQGTQVTVSS | low polyreactivity
39 | QVQLVESGGGLVQAGGSLRLSCAASGSTFRFYTMGWYRQAPGKERELVATITSGGSTNYADSVKGRFTISRDNAKNTVYLQMNSLKPEDTAVYYCAASSVLTNHDYWGQGTQVTVSS | low polyreactivity
40 | QVQLVESGGGLDQAGGSLRLSCAASGRTLYKYAMGWYRQAPGKERELVAAIRWIGGSTYYADSVKGRFTISRDNAKNTVYLQMNSLKPEDTAVYYCAATYYYSRYGRYDYWGQGTQVTVSS | high polyreactivity
41 | QVQLGDSGGGLVQAGGSLRLSCAASGRIFGVYAMGWYRQAPGKERELVAAISRNGGSTYYADSVKGRFTISRDNAKNTVYLQMNSLKPEDTAVYYCATGGGVEAAGAYWGQGTQVTVSS | low polyreactivity
42 | QVQLVESGGGLVQAGGSLRLSCAASGITFLPYTMGWYRQAPGKERELVATISWNGGSTYYADSVKGRFTISRDNAKNTVYLQMNSLKPEDTAVYYCAARQVQAPRSIGFYYWGQGTQVTVSS | high polyreactivity
43 | QVQLVESGGGLVQAGGSLRLSCAASGSTFGPNAMGWYRQAPGKERELVAAINTRGGSTYYADSVKGRFTISRDNAKNTVYLQMNSLKPEDTAVYYCAAEYVVWYLDRFNYWGQGTQVTVSS | high polyreactivity

Reference: the nanobody polyreactivity screen of Harvey et al. (2022)
